Laboratory results as given in US20260001961A1 (ALLIGATOR BIOSCIENCE, published 2026).
Read-outs that look alike come from different tables or passages of the source.

Legend:
CD40 [1] = target: T1, CD40 (UniProt P25942 21-193); experiment: Octet BLI; biotinylated CD40 on streptavidin sensor;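 also: octet RED96 biolayer interferometry, 300 s association then 300 s dissociation in kinetic buffer, buffer-blank referenced, fitted with a 1:1 Langmuir binding model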
T1 construct: also called biotinylated CD40; CD40 antigen
T1 sequence (P25942 21-193 limits assumed): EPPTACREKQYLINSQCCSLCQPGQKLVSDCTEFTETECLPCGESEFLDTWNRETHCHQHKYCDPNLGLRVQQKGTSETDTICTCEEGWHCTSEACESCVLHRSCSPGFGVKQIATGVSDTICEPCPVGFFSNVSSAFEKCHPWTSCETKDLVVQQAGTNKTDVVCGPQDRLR
Experimental: Kinetic measurements were performed using the Octet RED96 platform (ForteBIo). […] Association was followed for 300 seconds followed by dissociation in 1x Kinetic buffer for 300 seconds. Sensor tips were regenerated using 10 mM glycine, pH 1.7. Data generated were referenced by subtracting a parallel buffer blank, the baseline was aligned with the γ-axis, inter-step correlation by alignment against dissociation was performed and the data were smoothed by a Savitzky-Golay filter in the data analysis software (v.9.0.0.14). The processed data were fitted using a 1:1 Langmuir binding model with X2 as a measurement of fitting accuracy.
Binding affinities of all the variants were determined using Octet (Pall ForteBio).

EpCAM = target: T2, EpCAM (UniProt P16422 24-265); experiment: Octet BLI; biotinylated EpCAM on streptavidin sensor;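 also: octet RED96 kinetics: 300 s association, then 300 s dissociation in 1x Kinetic buffer, buffer-blank referenced, Savitzky-Golay smoothed, fitted to a 1:1 Langmuir binding model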
T2 construct: also called biotinylated EpCAM
T2 sequence (looked up): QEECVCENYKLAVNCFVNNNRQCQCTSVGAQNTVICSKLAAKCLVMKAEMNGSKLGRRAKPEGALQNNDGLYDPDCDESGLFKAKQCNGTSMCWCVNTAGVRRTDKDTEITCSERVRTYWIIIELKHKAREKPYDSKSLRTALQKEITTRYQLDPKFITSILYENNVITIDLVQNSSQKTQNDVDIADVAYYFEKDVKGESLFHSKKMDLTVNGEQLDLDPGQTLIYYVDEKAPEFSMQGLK

CD40 [2] = target: T1, CD40; experiment: dual ELISA: CD40 coated, bsAb titrated, biotinylated EpCAM + streptavidin-HRP; signal needs both targets
Experimental: (§1) Dual ELISA Plates were coated with 0.5 μg/mL CD40 in PBS over night at 4° C. After washing in PBS/0.05% Tween 20 (PBST), the plates were blocked with PBS/2% BSA for at least 30 minutes at room temperature before being washed again. Samples serially diluted in PBS/0.5% BSA were then added and allowed to bind for at least 1 hour at room temperature. […] Dual complexed bsAb with CD40 and EpCAM were detected with HRP-labelled streptavidin. SuperSignal Pico Luminescent was used as substrate and luminescence signals were measured using Fluostar Optima.

[3] = target: T3, 5T4 expressed on CHO cells (UniProt Q13641 32-420, limits assumed); experiment: flow cytometry on CHO cells expressing 5T4, anti-human IgG Fcg-PE; CHOwt cells as control
T3 construct: whole, on cells; also called CHO-5T4; 5T4 expressing CHO cells
T3 sequence (looked up): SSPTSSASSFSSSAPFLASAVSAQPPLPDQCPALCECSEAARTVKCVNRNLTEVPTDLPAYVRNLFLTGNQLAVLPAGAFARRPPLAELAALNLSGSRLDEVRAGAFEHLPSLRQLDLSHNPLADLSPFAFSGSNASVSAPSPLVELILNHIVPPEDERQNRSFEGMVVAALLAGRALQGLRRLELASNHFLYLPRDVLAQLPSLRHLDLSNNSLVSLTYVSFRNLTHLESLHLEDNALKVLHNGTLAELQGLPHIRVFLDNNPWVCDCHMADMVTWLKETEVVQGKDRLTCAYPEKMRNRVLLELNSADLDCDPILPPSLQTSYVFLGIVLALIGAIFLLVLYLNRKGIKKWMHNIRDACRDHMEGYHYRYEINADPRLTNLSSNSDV
Experimental: (§2) Binding to respective targets expressed on cells were evaluated using flow cytometry. I brief, CHO cells modified to express 5T4, B16 cells modified to express CD40 as well as the wildtype CHO and B16 cell lines were incubated with titrated concentrations of RUBY™ bsAbs. Binding of the antibodies was detected using fluorochrome-conjugated anti-human IgG and analyzed using flow cytometry.

CD40 expressed on cells [4] = target: T4, CD40 expressed on cells (UniProt P25942 21-277); experiment: flow cytometry on B16 cells expressing CD40, anti-human IgG Fcg-PE; B16wt cells as control
T4 construct: whole, on cells; also called B16-CD40; CD40 expressing B16 cells
T4 sequence (P25942 21-277 limits assumed): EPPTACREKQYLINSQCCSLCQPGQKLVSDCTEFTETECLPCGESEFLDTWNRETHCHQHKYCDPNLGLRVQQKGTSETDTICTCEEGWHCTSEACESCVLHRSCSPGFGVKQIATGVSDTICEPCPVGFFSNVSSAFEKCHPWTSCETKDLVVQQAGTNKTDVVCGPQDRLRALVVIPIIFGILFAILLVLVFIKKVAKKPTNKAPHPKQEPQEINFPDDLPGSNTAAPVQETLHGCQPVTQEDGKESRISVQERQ
Experimental: as §2

CD40 [5] = target: T1, CD40; experiment: dual ELISA: CD40 coated, bsAb titrated, biotinylated EpCAM + streptavidin-HRP; signal needs both targets; remark: listed apart in the source
Experimental: as §1

CD40 [6] = target: T1, CD40; experiment: as above; remark: listed apart in the source
Experimental: as §1

5T4 = target: T5, 5T4 (UniProt Q13641 32-355); experiment: dual target ELISA (simultaneous 5T4 and CD40)
T5 construct: also called 5T4 antigen (dual target ELISA)
T5 sequence (looked up): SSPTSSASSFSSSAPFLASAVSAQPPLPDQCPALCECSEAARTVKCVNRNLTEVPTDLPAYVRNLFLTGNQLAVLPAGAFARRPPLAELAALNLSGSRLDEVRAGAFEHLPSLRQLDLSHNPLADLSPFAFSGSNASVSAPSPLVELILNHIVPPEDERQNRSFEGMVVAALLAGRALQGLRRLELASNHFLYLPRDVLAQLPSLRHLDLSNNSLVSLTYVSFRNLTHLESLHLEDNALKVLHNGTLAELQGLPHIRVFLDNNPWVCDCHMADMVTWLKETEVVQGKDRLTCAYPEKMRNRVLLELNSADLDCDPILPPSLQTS
Experimental: Antigen binding was evaluated by dual target ELISA. In brief, relevant antigens were coated at 0.5 μg/ml in PBS in ELISA plates over night at 4° C. After washing in PBS/0.05% Tween 20 (PBST), the plates were blocked with PBST/2% BSA for at least 30 minutes at room temperature before being washed again. Samples serially diluted in PBST/0.5% BSA were then added and allowed to bind for at least 1 hour at room temperature. […] Dual complexed bsAb were detected with HRP-labelled streptavidin. SuperSignal Pico Luminescent was used as substrate and luminescence signals were measured using Fluostar Optima. Binding was compared between parental and mutated RUBY pairs.

[7] = target: T3, 5T4 expressed on CHO cells; experiment: flow cytometry on CHO cells expressing 5T4, anti-human IgG Fcg-PE; CHOwt cells as control; remark: listed apart in the source
Experimental: as §2

CD40 expressed on cells [8] = target: T4, CD40 expressed on cells; experiment: flow cytometry on B16 cells expressing CD40, anti-human IgG Fcg-PE; B16wt cells as control; remark: listed apart in the source
Experimental: as §2

B1: AM_4115-4131 (bispecific antibody)
heavy 1: not shown
light: DIQMTQSPSSLSASVGDRVTITCRASQSISSYLNWYQEKPGKAPKLLIYAASSLQSGVPSRFSGSGSGTDFTLTISSLQPEDFATYYCQQYGRNPPTFGQGTKLEIKRTVAAPSVFIFPPSDEQLKSGTASVVCYLNNFYPREAKVQWKVDNALQSGNSQESVTEQDSKDSTYSLWSTLTLSKADYEKHKVYACEVTHQGLSSPVTKSFNRGEC
heavy 2: EVQLLEQSGAELVRPGTSVKISCKASGYAFTNYWLGWVKERPGHGLEWIGDIFPGSGNIHYNEKFKGKATLTADKSSSTAYMQLSSLTFEDSAVYFCARLRNWDEPMDYWGQGTTVTVSSASTKGPSVFPLAPSSKSTSGGTAALGCLVKDYFPEPVTVSWNSGALTSGVHTFPAVLQSSGLWSLSSVVEVPSSSLGTQTYICNVNHKPSNTKVDKKVEPKSC
notes: AC_05293 backbone; also called double mutant I126S + Y180W; copies: 2 + 2 + 2
- Kd (CD40 [1]): 0.97 nM
- koff (CD40 [1]): 0.00089 s⁻¹
- kon (CD40 [1]): 920000 M⁻¹ s⁻¹
- Kd (EpCAM): 7.2 nM
- koff (EpCAM): 0.0013 s⁻¹
- kon (EpCAM): 180000 M⁻¹ s⁻¹
- EC50 (read off the curve) (CD40 [2]): ~0.6 nM

B2: AC_05332 (bispecific antibody, human IgG1, kappa, L234A L235A)
heavy: not shown
light: DIQMTQSPSSLSASVGDRVTITCRASQSISSYLNWYQEKPGKAPKLLIYAASSLQSGVPSRFSGSGSGTDFTLTISSLQPEDFATYYCQQTYGYLHTFGQGTKLEIKRTVAAPSVFIFPPSDEQLKSGTASVVCYLNNFYPREAKVQWKVDNALQSGNSQESVTEQDSKDSTYSLWSTLTLSKADYEKHKVYACEVTHQGLSSPVTKSFNRGEC
chain: EVQLLESGGGLVQPGGSLRLSCAASGFTFSSYAMSWVREAPGKGLEWVSGIGSYGGGTYYADSVKGRFTISRDNSKNTLYLQMNSLRAEDTAVYYCARYVNFGMDYWGQGTLVTVSSASTKGPSVFPLAPSSKSTSGGTAALGCLVKDYFPEPVTVSWNSGALTSGVHTFPAVLQSSGLYSLSSVVEVPSSSLGTQTYICNVNHKPSNTKVDKKVEPKSC
notes: RUBY format; H1 (role heavy) = IgG heavy chain-linker-Fab light chain, L1 (role light) = IgG light chain, H2 (role chain) = Fab heavy chain; also called parental bsAb AC_05332; 5T4xCD40
- EC50 (read off the curve) [3]: ~10 nM
- EC50 (read off the curve) (CD40 expressed on cells [4]): ~5 nM

B3: 4115 (bispecific antibody)
heavy 1: not shown
heavy 2: EVQLLEQSGAELVRPGTSVKISCKASGYAFTNYWLGWVKERPGHGLEWIGDIFPGSGNIHYNEKFKGKATLTADKSSSTAYMQLSSLTFEDSAVYFCARLRNWDEPMDYWGQGTTVTVSSASTKGPSVFPLAPSSKSTSGGTAALGCLVKDYFPEPVTVSWNSGALTSGVHTFPAVLQSSGLYSLSSVVEVPSSSLGTQTYICNVNHKPSNTKVDKKVEPKSC
light: DIQMTQSPSSLSASVGDRVTITCRASQSISSYLNWYQEKPGKAPKLLIYAASSLQSGVPSRFSGSGSGTDFTLTISSLQPEDFATYYCQQYGRNPPTFGQGTKLEIKRTVAAPSVFIFPPSDEQLKSGTASVVCYLNNFYPREAKVQWKVDNALQSGNSQESVTEQDSKDSTYSLWSTLTLSKADYEKHKVYACEVTHQGLSSPVTKSFNRGEC
notes: also called single mutant I126S of AC_05293; copies: 2 + 2 + 2
- EC50 (read off the curve) (CD40 [5]): ~0.2 µg/mL

B4: AM_4115-4126 (bispecific antibody)
heavy 1: not shown
heavy 2: EVQLLEQSGAELVRPGTSVKISCKASGYAFTNYWLGWVKERPGHGLEWIGDIFPGSGNIHYNEKFKGKATLTADKSSSTAYMQLSSLTFEDSAVYFCARLRNWDEPMDYWGQGTTVTVSSASTKGPSVFPLAPSSKSTSGGTAALGCLVKDYFPEPVTVSWNSGALTSGVHTFPAVLQSSGLISLSSVVEVPSSSLGTQTYICNVNHKPSNTKVDKKVEPKSC
light: DIQMTQSPSSLSASVGDRVTITCRASQSISSYLNWYQEKPGKAPKLLIYAASSLQSGVPSRFSGSGSGTDFTLTISSLQPEDFATYYCQQYGRNPPTFGQGTKLEIKRTVAAPSVFIFPPSDEQLKSGTASVVCYLNNFYPREAKVQWKVDNALQSGNSQESVTEQDSKDSTYSLWSTLTLSKADYEKHKVYACEVTHQGLSSPVTKSFNRGEC
notes: AC_05293 backbone; also called double mutant I126S + Y180I; copies: 2 + 2 + 2
- Kd (CD40 [1]): 1.1 nM
- koff (CD40 [1]): 0.00085 s⁻¹
- kon (CD40 [1]): 740000 M⁻¹ s⁻¹
- Kd (EpCAM): 6.9 nM
- koff (EpCAM): 0.0011 s⁻¹
- kon (EpCAM): 170000 M⁻¹ s⁻¹
- EC50 (read off the curve) (CD40 [2]): ~0.5 nM

B5: 4112 (bispecific antibody)
heavy 1: not shown
heavy 2: EVQLLEQSGAELVRPGTSVKISCKASGYAFTNYWLGWVKERPGHGLEWIGDIFPGSGNIHYNEKFKGKATLTADKSSSTAYMQLSSLTFEDSAVYFCARLRNWDEPMDYWGQGTTVTVSSASTKGPSVFPLAPSSKSTSGGTAALGCLVKDYFPEPVTVSWNSGALTSGVHTFPAVLQSSGLYSLSSVVEVPSSSLGTQTYICNVNHKPSNTKVDKKVEPKSC
light: DIQMTQSPSSLSASVGDRVTITCRASQSISSYLNWYQEKPGKAPKLLIYAASSLQSGVPSRFSGSGSGTDFTLTISSLQPEDFATYYCQQYGRNPPTFGQGTKLEIKRTVAAPSVFIFPPSDEQLKSGTASVVCYLNNFYPREAKVQWKVDNALQSGNSQESVTEQDSKDSTYSLWSTLTLSKADYEKHKVYACEVTHQGLSSPVTKSFNRGEC
notes: also called single mutant I126N of AC_05293; copies: 2 + 2 + 2
- EC50 (read off the curve) (CD40 [6]): ~0.1 µg/mL

B6: 4116 (bispecific antibody)
heavy 1: not shown
heavy 2: EVQLLEQSGAELVRPGTSVKISCKASGYAFTNYWLGWVKERPGHGLEWIGDIFPGSGNIHYNEKFKGKATLTADKSSSTAYMQLSSLTFEDSAVYFCARLRNWDEPMDYWGQGTTVTVSSASTKGPSVFPLAPSSKSTSGGTAALGCLVKDYFPEPVTVSWNSGALTSGVHTFPAVLQSSGLYSLSSVVEVPSSSLGTQTYICNVNHKPSNTKVDKKVEPKSC
light: DIQMTQSPSSLSASVGDRVTITCRASQSISSYLNWYQEKPGKAPKLLIYAASSLQSGVPSRFSGSGSGTDFTLTISSLQPEDFATYYCQQYGRNPPTFGQGTKLEIKRTVAAPSVFIFPPSDEQLKSGTASVVCYLNNFYPREAKVQWKVDNALQSGNSQESVTEQDSKDSTYSLWSTLTLSKADYEKHKVYACEVTHQGLSSPVTKSFNRGEC
notes: also called single mutant I126T of AC_05293; copies: 2 + 2 + 2
- EC50 (read off the curve) (CD40 [5]): ~0.1 µg/mL

B7: 4114 (bispecific antibody)
heavy 1: not shown
heavy 2: EVQLLEQSGAELVRPGTSVKISCKASGYAFTNYWLGWVKERPGHGLEWIGDIFPGSGNIHYNEKFKGKATLTADKSSSTAYMQLSSLTFEDSAVYFCARLRNWDEPMDYWGQGTTVTVSSASTKGPSVFPLAPSSKSTSGGTAALGCLVKDYFPEPVTVSWNSGALTSGVHTFPAVLQSSGLYSLSSVVEVPSSSLGTQTYICNVNHKPSNTKVDKKVEPKSC
light: DIQMTQSPSSLSASVGDRVTITCRASQSISSYLNWYQEKPGKAPKLLIYAASSLQSGVPSRFSGSGSGTDFTLTISSLQPEDFATYYCQQYGRNPPTFGQGTKLEIKRTVAAPSVFIFPPSDEQLKSGTASVVCYLNNFYPREAKVQWKVDNALQSGNSQESVTEQDSKDSTYSLWSTLTLSKADYEKHKVYACEVTHQGLSSPVTKSFNRGEC
notes: also called single mutant I126Q of AC_05293; copies: 2 + 2 + 2
- EC50 (read off the curve) (CD40 [6]): ~0.1 µg/mL

B8: AC_05374 (bispecific antibody, human IgG1, lambda, L234A L235A)
heavy 1: not shown
light: not shown
heavy 2: EVQLLESGGGLVQPGGSLRLSCAASGFTFSSYAMSWVREAPGKGLEWVSAISGSGGSAYYADSVKGRFTISRDNSKNTLYLQMNSLRAEDTAVYYCARYYGGYYSAWMDYWGQGTLVTVSSASTKGPSVFPLAPSSKSTSGGTAALGCLVKDYFPEPVTVSWNSGALTSGVHTFPAVLQSSGLYSLSSVVEVPSSSLGTQTYICNVNHKPSNTKVDKKVEPKSC
notes: AC_05330 with the mutation in the VH of chain H2; also called T65A mutant of AC_05330; copies: 2 + 2 + 2
- binding result (5T4): no binding
- binding result [7]: no binding (tested: about 700 nM)
- EC50 (read off the curve) (CD40 expressed on cells [8]): ~0.5 nM

B9: AC_05375 (bispecific antibody, human IgG1, lambda, L234A L235A)
heavy 1: not shown
light: not shown
heavy 2: EVQLLESGGGLVQPGGSLRLSCAASGFTFSSYAMSWVREAPGKGLEWVSAISGSGGSIYYADSVKGRFTISRDNSKNTLYLQMNSLRAEDTAVYYCARYYGGYYSAWMDYWGQGTLVTVSSASTKGPSVFPLAPSSKSTSGGTAALGCLVKDYFPEPVTVSWNSGALTSGVHTFPAVLQSSGLYSLSSVVEVPSSSLGTQTYICNVNHKPSNTKVDKKVEPKSC
notes: AC_05330 with the mutation in the VH of chain H2; also called T65I mutant of AC_05330; copies: 2 + 2 + 2
- binding result (5T4): no binding
- binding result [7]: no binding (tested: about 700 nM)
- EC50 (read off the curve) (CD40 expressed on cells [8]): ~0.4 nM
